Measurements from PMC4810211, “DNA Aptamers against Taiwan Banded Krait α-Bungarotoxin Recognize Taiwan Cobra Cardiotoxins”.

How the values were obtained:
[1] = molecular target: alpha-bungarotoxin (α-Bgt) (Bungarus multicinctus (Taiwan banded …, UniProt P60615 22-95)); experiment: fluorescence quenching titration; 10 mM Tris-HCl pH 7.5, 1 mM EDTA, 100 mM NaCl; temperature not stated; […]; details: protein: native; tags: none; label: 5'-FAM
cardiotoxin 3 (CTX3) = molecular target: T1, cardiotoxin 3 (CTX3) (Naja atra (Taiwan cobra), UniProt P60301 22-81); experiment: fluorescence quenching titration; 10 mM Tris-HCl pH 7.5, 1 mM EDTA, 100 mM NaCl; temperature not stated; fluorescence with 4 nM aptamer (ex 480/em 520 nm); EMSA with 5 uM aptamer, 20 min, 2% agarose, TAE; details: protein: native, tags: none, label: 5'-FAM
T1 sequence: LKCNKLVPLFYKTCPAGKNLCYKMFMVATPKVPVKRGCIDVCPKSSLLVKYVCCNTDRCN

cardiotoxin N (CTXN) = molecular target: T2, cardiotoxin N (CTXN) (Naja atra (Taiwan cobra), UniProt P80245 22-81); experiment: fluorescence quenching titration; 10 mM Tris-HCl pH 7.5, 1 mM EDTA, 100 mM NaCl; temperature not stated; […]; details: protein: native; tags: none; label: 5'-FAM
T2 sequence: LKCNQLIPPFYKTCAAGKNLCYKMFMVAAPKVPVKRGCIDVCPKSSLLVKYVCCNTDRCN

cardiotoxin 5 (CTX5) = molecular target: T3, cardiotoxin 5 (CTX5) (Naja atra (Taiwan cobra), UniProt Q98961 22-81); experiment: as above; details: protein: native; tags: none; label: 5'-FAM
T3 sequence: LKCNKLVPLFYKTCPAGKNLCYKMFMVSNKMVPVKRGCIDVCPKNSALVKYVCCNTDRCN

[2] = molecular target: T4, cardiotoxin-like protein (CLBP) (Naja atra (Taiwan cobra), UniProt P62375 22-83); experiment: as above; details: protein: native; tags: none; label: 5'-FAM
T4 sequence: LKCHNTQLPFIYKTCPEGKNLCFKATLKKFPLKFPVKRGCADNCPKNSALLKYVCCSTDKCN

cardiotoxin 2 (CTX2) = molecular target: T5, cardiotoxin 2 (CTX2) (Naja atra (Taiwan cobra), UniProt P01442 22-81); experiment: fluorescence quenching titration; 10 mM Tris-HCl pH 7.5, 1 mM EDTA, 100 mM NaCl; temperature not stated; fluorescence with 4 nM aptamer (ex 480/em 520 nm); EMSA with 5 uM aptamer, 20 min, 2% agarose, TAE; details: protein: native; tags: none; label: 5'-FAM
T5 sequence: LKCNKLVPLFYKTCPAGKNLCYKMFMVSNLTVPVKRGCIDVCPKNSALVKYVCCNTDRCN

cardiotoxin 1 (CTX1) = molecular target: T6, cardiotoxin 1 (CTX1) (Naja atra (Taiwan cobra), UniProt P60304 22-81); experiment: as above; details: protein: native; tags: none; label: 5'-FAM
T6 sequence: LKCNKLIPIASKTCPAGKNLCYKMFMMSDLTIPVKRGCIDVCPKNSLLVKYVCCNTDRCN

cardiotoxin 4 (CTX4) = molecular target: T7, cardiotoxin 4 (CTX4) (Naja atra (Taiwan cobra), UniProt P01443 22-81); experiment: as above; details: protein: native; tags: none; label: 5'-FAM
T7 sequence: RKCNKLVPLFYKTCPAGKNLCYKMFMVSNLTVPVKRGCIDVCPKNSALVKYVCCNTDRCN

Sequence of alpha-bungarotoxin (α-Bgt) (Bungarus multicinctus (P60615 22-95): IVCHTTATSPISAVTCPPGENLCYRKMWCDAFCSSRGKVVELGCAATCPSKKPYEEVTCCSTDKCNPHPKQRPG

With AGGGCACAGAGAAGAAGTCGTGGATTTGAATGGTTTTGGT (ssDNA) [FAM-bgt2] the Kd [1] was 460 nM and the Kd (cardiotoxin 3 (CTX3)) was 260 nM.

AGAAACGTAGCGGTAACTGCTAGAATGCGCCGAGAGAGCG (ssDNA) [FAM-bgt4] gave a Kd [1] of 280 nM and a Kd (cardiotoxin 3 (CTX3)) of 1170 nM.

GCGAGGTGTTCGAGAGTTAGGGCGACATGACCAAACGTT (ssDNA) [FAM-bgt1] was tested, and the Kd (cardiotoxin N (CTXN)) was 8850 nM, the Kd (cardiotoxin 5 (CTX5)) was 17200 nM and the Kd [1] was 2210 nM. It also gave a Kd [2] of 7190 nM, a Kd (cardiotoxin 3 (CTX3)) of 2250 nM and a Kd (cardiotoxin 2 (CTX2)) of 6290 nM. For the same binder, the Kd (cardiotoxin 1 (CTX1)) was 2510 nM and the Kd (cardiotoxin 4 (CTX4)) was 8130 nM.

GCGAGGTGTTCGAGAGTTAGGGCGACATGACCAAACGTT (ssDNA) [FAM-bgt1-DABCYL] showed a Kd (cardiotoxin 3 (CTX3); 3'-DABCYL) of 2350 nM.

For ATCATGTCTTTTCGGGATGGGCAAGAAGGGAAATAATGC (ssDNA) [FAM-bgt3], the Kd [1] was 140 nM and the Kd (cardiotoxin 3 (CTX3)) was 1260 nM.
